Measured values as given in patent US20210220450A1, “TREATMENT OF AN IOP CONDITION” (The Research Foundation for The State University of New York, priority 2013, published 2021).

Columns and labels:
C57BL/6J mice = experiment: Outflow facility in TA and protein treated C57BL/6J mouse eyes (Example 13); type: in vivo; settings: TA five days before intravitreal protein (2 μl, 5 μg/μl); two days after injection
Protocol: C57BL/6J mice were divided into two groups:
1) Animals receiving bilateral steroid (TA) injection subconjunctivally five days prior to protein injection (FIG. 10b) and 2) Animals not receiving subconjunctival steroids (FIG. 10c).
(§1) 1) Animals that received unilateral intravitreal injection with 2 μl of tPA (5 μg/μl, Actilyse; Boehringer Ingelheim, Ingelheim am Rhein, Germany) while the contralateral eye received 2 μl of BSA (5 μg/μl; Gold Biotechnology, St Louis, Mo., USA), and 2) Animals that received unilateral intravitreal injections with 2 μl of non-enzymatically active tPA (NE-tPA/S478A-tPA) (5 μg/μl; Innovative Research, Novi, Mich., USA) while the contralateral eye received 2 μl of BSA. Animals were euthanized two days after intravitreal injection.
(§2) Outflow facility determination: Mouse eyes were enucleated immediately after euthanasia. Outflow facility was determined using a constant pressure method, as previously described. Pressure was raised in steps of 4 cmH2O, from 8 cmH2O (5.88 mmHg) to 32 cmH2O (23.54 mmHg) by increasing the height of a column of fluid of BSS. […] Flow was constantly measured via a microfluidic flow sensor (0.07-1.5 uL/min, MFS1; Elveflow, Paris, France). […] Any eyes that developed visible leaks during outflow facility determination, or that had pressure-flow correlations with R^2<0.9, were excluded from analysis but were used for RNA quantification.

Mmp-2, Mmp-9, Mmp-13 [1] = experiment: Mmp expression in TA and protein treated C57BL/6J eyes (Example 13); type: in vivo, mouse; settings: vs BSA treated controls
PlatKO mice = experiment: Outflow facility in protein treated PlatKO mouse eyes (Example 14); type: in vivo; settings: intravitreal protein
Protocol: (§3) PlatKO and Mmp-9KO mice were also not given steroids prior to protein injections (FIG. 10c). Within each cohort, animals were divided into two groups:
as §1
as §2, with “BSS. Steady state was initially achieved after 10 minutes.” for “BSS.”

Mmp-2, Mmp-9, Mmp-13 [2] = experiment: Mmp expression in protein treated PlatKO eyes (Example 14); type: in vivo, mouse; settings: vs BSA treated eyes
Protocol: Tissue collection and confirmation of transgene expression: After outflow facility determination in adenovirus treated mice, mCherry expression in the TM was determined in all AdPLAT and AdPLATNE injected eyes. The eyes were dissected on ice to isolate a rim of tissue containing the TM by removing most of the iris and ciliary body. […] After observation, dissected rims were immediately immersed in RNA stabilizing agent (RNAlater, Invitrogen by ThermoFisher Scientific, Waltham, Mass., USA) and frozen. […]
RNA isolation and quantitative real time PCR: Tissue collected was pooled (four eyes) and homogenized in TRIzol reagent (Life Technologies, Carlsbad, Calif., USA). […] RNA concentration was determined with a Nanodrop ND-1000 Spectrophotometer (ThermoFisher Scientific, Waltham, Mass., USA). cDNA was synthesized by using High-Capacity cDNA Reverse Transcription Kit (Applied Biosystems, Waltham, Mass., USA) according to manufacturer's protocol. Quantitative real-time PCR (qRT-PCR) was performed by using Green-2-Go qPCR Mastermix-ROX (BioBasic, Amherst, N.Y., USA) on a QuantStudio 6 Flex thermal cycler (Applied Biosystems, Carlsbad, Calif., USA).
mRNA expression of sheep PLAT and mouse Mmp-2, Mmp-9, and Mmp-13 in angle ring tissues was determined. […] The relative fold change was calculated by using the ΔΔCt method. […]

[3] = tested on: Mmp-2, Mmp-9, Mmp-13, Plat; experiment: Mmp and Plat expression in protein treated C57BL/6J eyes not exposed to steroids (Example 15); type: in vivo, mouse; settings: C57BL/6J not exposed to steroids
Mmp-9KO mice = experiment: Outflow facility in protein treated Mmp-9KO mouse eyes (Example 16); type: in vivo; settings: intravitreal protein, p>0.05
Protocol: as §3, §1
as §2, with “BSS. Steady state was initially achieved after 10 minutes.” for “BSS.”

MMP-2, MMP-9, MMP-13 [4] = experiment: MMP expression in PA treated HTM cells (Examples 17, 18); type: cell-based
Tg-MYOCY437H mice = experiment: Outflow facility in Tg-MYOCY437H mouse eyes (Example 19); type: in vivo
Protocol: To investigate whether corticosteroids affect outflow facility in Tg-MYOCY437H mice, animals received bilateral injections (20 μl) with either triamcinolone acetonide (TA) (40 mg/ml, Kenalog-40; Bristol-Myers Squibb, NY, USA) suspension or phosphate-buffered saline (PBS) (Gibco, ThermoFisher Scientific, Waltham, Mass., USA) subconjunctivally using a 100 μL Hamilton syringe with a 26-gauge needle (Precision Glide, Becton Dickinson & CO, Franklin Lakes, N.J., USA). They were euthanized one week later for outflow facility measurement.
To investigate whether tPA can affect outflow facility in Tg-MYOCY437H mice, and determine whether tPA enzymatic action is necessary for such an effect, intravitreal injections were performed using a 10 μL Hamilton syringe with 36-gauge stainless steel needles (WPI Inc, Sarasota, Fla., USA). […] Animals were sacrificed either two or five days after intravitreal injections for outflow facility measurement. […]
Mouse eyes were enucleated immediately after euthanasia. Outflow facility was determined using a microfluidic flow sensor (0.07-1.5 uL/min, MFS1; Elveflow, Paris, France) and constant pressure method, as previously described (Hu, Barron et al. 2019). […] Any eyes that developed visible leaks or that had pressure-flow correlations with […] were excluded from analysis but were used for RNA quantification.

Mmp-2, Mmp-9, Mmp-13 [5] = experiment: Mmp expression in Tg-MYOCY437H angle ring tissue (Example 19); type: in vivo, mouse; settings: 2 days, vs BSA treated eyes
Protocol: Eyes were flash frozen in liquid nitrogen after outflow facility determination and subsequently dissected on ice to obtain the angle ring tissues containing the TM, as previously described (Kumar, Shah et al. 2013). Dissected TM tissues were immersed in RNAlater solution (Invitrogen, Waltham, Mass., USA) and then snap-frozen and stored at −80° C. until RNA extraction. Tissue collected was pooled (four eyes) and homogenized in TRIzol reagent for RNA isolation, per manufacturer's instructions (Life Technologies, Carlsbad, Calif., USA). RNA concentration was determined with a Nanodrop ND-1000 Spectrophotometer (Thermo Scientific, Wilmington, Del., USA). cDNA was synthesized by using High-Capacity cDNA Reverse Transcription Kit (Applied Biosystems, Waltham, Mass., USA) according to manufacturer's protocol. Quantitative real-time PCR (qRT-PCR) was performed by using Green-2-Go qPCR Mastermix-ROX (Bio Basic, Amherst, N.Y., USA) on a QuantStudio 6 Flex thermal cycler (Applied Biosystems, Carlsbad, Calif., USA). mRNA expression of Plat, Plau, Pai-1, Mmp-2, Mmp-9, and Mmp-13 in angle ring tissues was determined. Primers were designed by using Primer-BLAST (https://www.ncbi.nlm.nih.gov/tools/primer-blast/index.cgi?LINK_LOC=BlastHome; in the public domain); primer sequences are listed in Table 2. Primer specificity was confirmed by agarose gel electrophoresis and multiple-sized amplification products were absent on inspection of melting curves. Target mRNA expression values were normalized to the expression levels of Rps11 (ribosomal protein S11). The relative fold change was calculated by using the ΔΔCt method (Hu, Wang et al. 2015). Outliers identified via the Thompson Tau test were removed from analysis.

| Molecule | outflow facility, mean±standard deviation (C57BL/6J mice) | Mmp-2, Mmp-9 and Mmp-13 expression (Mmp-2, Mmp-9, Mmp-13 [1]) | increase in outflow facility compared to BSA treated eyes (PlatKO mice) | outflow facility, mean±standard deviation (PlatKO mice; no steroid, two days) | Mmp-2 expression (Mmp-2, Mmp-9, Mmp-13 [2]) | Mmp-9 expression (Mmp-2, Mmp-9, Mmp-13 [2]) | endogenous Plat expression [3] | gene expression changes in Mmp-2, Mmp-9 and Mmp-13 ([3]; vs BSA) | effect on outflow facility (Mmp-9KO mice) | MMP-2 expression (MMP-2, MMP-9, MMP-13 [4]; PA treated HTM cells, between treatments) | expression (FIG. 17C, MMP-9) (MMP-2, MMP-9, MMP-13 [4]; PA treated HTM cells, vs PA+BSA) | improvement of outflow facility (Tg-MYOCY437H mice) | Mmp-2 expression (Mmp-2, Mmp-9, Mmp-13 [5]) | Mmp-9 expression (Mmp-2, Mmp-9, Mmp-13 [5]) | Mmp-13 expression (Mmp-2, Mmp-9, Mmp-13 [5]) | MMP-9 expression (MMP-2, MMP-9, MMP-13 [4]; added to PA+NE-tPA, vs PA+NE-tPA treated cells) |
| --- | --- | --- | --- | --- | --- | --- | --- | --- | --- | --- | --- | --- | --- | --- | --- | --- |
| NE-tPA: non-enzymatically active tPA, serine-478 replaced by alanine (Innovative Research) (protein) SYQVICRDEKTQMIYQQHQSWLRPVLRSNRVEYCWCNSGRAQCHSVPVKSCSEPRCFNGGTCQQALYFSDFVCQCPEGFAGKCCEIDTRATCYEDQGISYRGTWSTAESGAECTNWNSSALAQKPYSGRRPDAIRLGLGNHNYCRNPDRDSKPWCYVFKAGKYSSEFCSTPACSEGNSDCYFGNGSAYRGTHSLTESGASCLPWNSMILIGKVYTAQNPSAQALGLGKHNYCRNPDGDAKPWCHVLKNRRLTWEYCDVPSCSTCGLRQYSQPQFRIKGGLFADIASHPWQAAIFAKHRRSPGERFLCGGILISSCWILSAAHCFQERFPPHHLTVILGRTYRVVPGEEEQKFEVEKYIVHKEFDDDTYDNDIALLQLKSDSSRCAQESSVVRTVCLPPADLQLPDWTECELSGYGKHEALSPFYSERLKEAHVRLYPSSRCTAQHLLNRTVTDNMLCAGDTRSGGPQANLHDACQGDSGGPLVCLNDGRMTLVGIISWGLGCGQKDVPGVYTKVTNYLDWIRDNMRP | 114±40.3×10^−5 μl/min/mmHg | significant upregulation | 51% | 92±42×10^−5 μl/min/mmHg | not significantly different | significant upregulation | did not cause significant changes | not significantly different | did not increase | not significantly different | significant upregulation | ~37% | no significant difference | significantly higher | significantly higher |  |
| RAP: inhibitor of LRP1 (protein, UniProt P30533 35-357, looked up) Alpha-2-macroglobulin …: YSREKNQPKPSPKRESGEEFRMEKLNQLWEKAQRLHLPPVRLAELHADLKIQERDELAWKKLKLDGLDEDGEKEARLIRNLNVILAKYGLDGKKDARQVTSNSLSGTQEDGLDDPRLEKLWHKAKTSGKFSGEELDKLWREFLHHKEKVHEYNVLLETLSRTEEIHENVISPSDLSDIKGSVLHSRHTELKEKLRSINQGLDRLRRVSHQGYSTEAEFEEPRVIDLWDLAQSANLTDKELEAFREELKHFEAKIEKHNHYQKQLEIAHEKLRHAESVGDGERVSRSREKHALLEGRTKELGYTVKKHLQDLSGRISRARHNEL |  |  |  |  |  |  |  |  |  |  |  |  |  |  |  | significantly lower |
